Data published in the supplement of paper PMC10201428.
± gives the standard deviation of the averaged measurements.

Experiments:
[1] = test system: VchCAST RNA-guided transposition machinery (E. coli BL21(DE3) host, lacZ target); test: relative integration efficiency (T-RL orientation) vs wild-type transposon end (log2 (normalized fold change)); transposon end mutated: right end (5 bp flank + 75 bp right end); higher = more efficient transposition
Outline: (§1)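 Pools of 1549 left-end or 1849 right-end barcoded transposon variants were cloned into a pUC57 mini-transposon donor and co-transformed into E. coli BL21(DE3) with a T7-driven effector plasmid carrying a CRISPR array, tniQ-cas8-cas7-cas6 and tnsA-tnsB-tnsC. Plating used 0.1 mM IPTG at 37°C for 18 h, and input plasmids and genomic integration junctions were PCR-amplified for Illumina sequencing, with two biological output replicates and four reference barcodes. Relative integration efficiency is the log-transformed fold change of output over input barcode abundance, normalised to the reference barcodes.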

[2] = test system: VchCAST RNA-guided transposition machinery (E. coli BL21(DE3) host, lacZ target); test: relative integration efficiency (T-LR orientation) vs wild-type transposon end (log2 (normalized fold change)); transposon end mutated: right end (5 bp flank + 75 bp right end); higher = more efficient transposition
Outline: as §1

Sequence | relative integration efficiency (log2) [1] | relative integration efficiency (log2) [2]
ACATTTGTTGATACAACCATAAGTTGATATTTTCAACCATAAGTTGATATTTTTCAGTGGGTATTTAACTATAACGCTCTGATCATAGTCAGACCAACATTGCTACGACCCGTATTCGCACCGACAC | -0.302 ± 0.092 | 2.85 ± 0.1
ACATTTGTTGATACAACCATAAGTTGATATTTTCAACCATATATTGATATCTCTCACAACCATAAAATGATAATTACTCTGATCATAGTCAGACCAACATTGCTACGACCCGTATTCGCACCGACAC | -0.54 ± 0.12 | -0.461 ± 0.17
ACATTTGTTGATACAACCATAAGTTGATATTTTCAACCATATATTGATATCTCTCACAACCATAAAGTGATATTTACTCTGATCATAGTCAGACCAACATTGCTACGACCCGTATTCGCACCGACAC | -0.324 ± 0.14 | -0.077 ± 0.032
ACATTTGTTGATACAACCATAAGTTGATATTTTCAACCATATATTGATATCTCTCACAACCATAAGTTGATATTTTCTCTGATCATAGTCAGACCAACATTGCTACGACCCGTATTCGCACCGACAC | -0.118 ± 0.16 | -0.0553 ± 0.32
ACATTTGTTGATACAACCATAAGTTGATATTTTCAACCATATATTGATATCTCTCACAACCATATATTGATATCTCCTCTGATCATAGTCAGACCAACATTGCTACGACCCGTATTCGCACCGACAC | -0.28 ± 0.11 | 0.206 ± 0.098
ACATTTGTTGATACAACCATAAGTTGATATTTTCAACCATATATTGATATCTCTCACACCCATAAATTGATAATTACTCTGATCATAGTCAGACCAACATTGCTACGACCCGTATTCGCACCGACAC | -0.464 ± 0.15 | 0.134 ± 0.11
ACATTTGTTGATACAACCATAAGTTGATATTTTCAACCATATATTGATATCTCTCACACCCATAAATTGATATTGCCTCTGATCATAGTCAGACCAACATTGCTACGACCCGTATTCGCACCGACAC | -0.363 ± 0.0055 | -0.117 ± 0.12
ACATTTGTTGATACAACCATAAGTTGATATTTTCAACCATATATTGATATCTCTCAGTGGGTATTTAACTATAACGCTCTGATCATAGTCAGACCAACATTGCTACGACCCGTATTCGCACCGACAC | -1.15 ± 0.24 | 2.4 ± 0.039
ACATTTGTTGATACAACCATAAGTTGATATTTTCACCCATAAATTGATAATTATCACAACCATAAAATGATAATTACTCTGATCATAGTCAGACCAACATTGCTACGACCCGTATTCGCACCGACAC | -0.0424 ± 0.077 | -0.584 ± 0.047
ACATTTGTTGATACAACCATAAGTTGATATTTTCACCCATAAATTGATAATTATCACAACCATAAAGTGATATTTACTCTGATCATAGTCAGACCAACATTGCTACGACCCGTATTCGCACCGACAC | -0.345 ± 0.068 | -0.211 ± 0.3
ACATTTGTTGATACAACCATAAGTTGATATTTTCACCCATAAATTGATAATTATCACAACCATAAGTTGATATTTTCTCTGATCATAGTCAGACCAACATTGCTACGACCCGTATTCGCACCGACAC | -0.215 ± 0.056 | -0.0829 ± 0.01
ACATTTGTTGATACAACCATAAGTTGATATTTTCACCCATAAATTGATAATTATCACAACCATATATTGATATCTCCTCTGATCATAGTCAGACCAACATTGCTACGACCCGTATTCGCACCGACAC | -0.64 ± 0.15 | -0.455 ± 0.14
ACATTTGTTGATACAACCATAAGTTGATATTTTCACCCATAAATTGATAATTATCACACCCATAAATTGATAATTACTCTGATCATAGTCAGACCAACATTGCTACGACCCGTATTCGCACCGACAC | 2.44 ± 0.29 | 2.73 ± 0.044
ACATTTGTTGATACAACCATAAGTTGATATTTTCACCCATAAATTGATAATTATCACACCCATAAATTGATATTGCCTCTGATCATAGTCAGACCAACATTGCTACGACCCGTATTCGCACCGACAC | 0.0993 ± 0.059 | -0.177 ± 0.84
ACATTTGTTGATACAACCATAAGTTGATATTTTCACCCATAAATTGATAATTATCAGTGGGTATTTAACTATAACGCTCTGATCATAGTCAGACCAACATTGCTACGACCCGTATTCGCACCGACAC | -1 ± 0.34 | 2.55 ± 0.051
